The source of these data is PMC9083366, “Brassinosteroid-Insensitive 1-Associated Receptor Kinase 1 Modulates Abscisic Acid Signaling by Inducing PYR1 Monomerization and Association With ABI1 in Arabidopsis” (Frontiers in Plant Science, 2022).

The target in this assay is T1, GST-ABI1 (Arabidopsis thaliana, UniProt P49597 1-434).
T1 construct: ABI1 (ABA-Insensitive 1), clade A protein phosphatase 2C, Arabidopsis thaliana; also called ABA-Insensitive 1; not shown: GST, N-terminal, kept
T1 sequence (looked up): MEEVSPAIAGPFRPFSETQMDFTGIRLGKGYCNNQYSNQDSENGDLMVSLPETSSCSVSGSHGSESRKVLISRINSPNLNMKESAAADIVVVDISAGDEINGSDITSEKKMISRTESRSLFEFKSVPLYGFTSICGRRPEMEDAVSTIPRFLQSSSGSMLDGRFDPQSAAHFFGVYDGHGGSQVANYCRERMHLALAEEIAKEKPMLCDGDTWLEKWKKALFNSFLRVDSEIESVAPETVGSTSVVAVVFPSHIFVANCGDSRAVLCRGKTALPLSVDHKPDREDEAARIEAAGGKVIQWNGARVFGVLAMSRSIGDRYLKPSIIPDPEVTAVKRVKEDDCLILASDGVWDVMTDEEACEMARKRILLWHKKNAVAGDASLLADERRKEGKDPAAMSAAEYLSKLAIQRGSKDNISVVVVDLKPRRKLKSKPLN
As to the kind of experiment: pull-down; GST-ABI1 incubated with HIS-PYR1 variants in the absence or presence of 30 uM ABA; western blot with anti-GST and anti-HIS. The settings on record: both partners purified.

B1: HIS-tagged PYR1 recombinant protein (natural protein, Arabidopsis thaliana, UniProt O49686 1-191, looked up)
chain: MPSELTPEERSELKNSIAEFHTYQLDPGSCSSLHAQRIHAPPELVWSIVRRFDKPQTYKHFIKSCSVEQNFEMRVGCTRDVIVISGLPANTSTERLDILDDERRVTGFSIIGGEHRLTNYKSVTTVHRFEKENRIWTVVLESYVVDMPEGNSEDDTRMFADTVVKLNLQKLATVAEAMARNSGDGSGSQVT
notes: PYR1 (PYRABACTIN …1), Arabidopsis thaliana, 191 amino acids; also called HIS-PYR1; PYRABACTIN …1; not shown: His, N-terminal, kept
On to B1, for which the binding result was “binds”.

B2: HIS-PYR1DD (phosphomimetic PYR1) (natural protein, Arabidopsis thaliana, UniProt O49686 1-191, looked up)
chain: MPSELTPEERSELKNSIAEFHTYQLDPGSCSSLHAQRIHAPPELVWSIVRRFDKPQTYKHFIKSCSVEQNFEMRVGCTRDVIVISGLPANTSTERLDILDDERRVTGFSIIGGEHRLTNYKSVTTVHRFEKENRIWDVVLEDYVVDMPEGNSEDDTRMFADTVVKLNLQKLATVAEAMARNSGDGSGSQVT
notes: PYR1, Arabidopsis thaliana, 191 amino acids, T137 and S142 mutagenized to aspartic acid; not shown: His, N-terminal, kept
Turning to B2, the binding result is given as “binds”.
